These results are taken from US20110182817A1 (NATIONAL UNIVERSITY CORPORATION OKAYAMA UNIVERSITY, published 2011).

For this test, the target named is T1, human LDL oxidatively modified by copper sulfate (human, UniProt P04114 28-4563, limits assumed, oxidatively modified by copper sulfate).
T1 construct: Lipoprotein particle; also called oxidized LDL
The experiment in a line: ELISA on immobilized Cu-oxidized human LDL, anti-mouse IgM-HRP. As to the method: 50 μl of […] human LDL oxidatively modified by copper sulfate was added to each well of 96-well microtiter plates (Immulon-2), and incubated at 4° C. overnight. After washing with PBS-Tween, the plates were blocked with 0.5% BSA-PBS. Test samples (culture supernatants appropriately diluted with PBS containing 0.1% BSA) were incubated in the plates at room temperature for one hour. After the plates were washed three times with PBS-Tween, an HRP-labeled anti-mouse IgM antibody was incubated in the plates at room temperature for one hour. After the plates were washed three times with PBS-Tween, 0.03% H₂O₂ and 0.1 M citrate buffer […] containing 0.4 mg/ml orthophenylenediamine (OPD) were added to the plates. After ten minutes of incubation, the reaction was stopped by adding an equal volume of 2N H₂SO₄. Absorbance was measured at 490 nm (FIG. 2). FIG. 2 is a graph showing the reactivities of monoclonal antibodies to NLO and oxidized LDL. The monoclonal antibodies were produced by hybridomas of the established five clones.
(An ELISA detects its analyte on a solid surface through an enzyme-linked reagent.)

T1 sequence (P04114 28-4563 limits assumed): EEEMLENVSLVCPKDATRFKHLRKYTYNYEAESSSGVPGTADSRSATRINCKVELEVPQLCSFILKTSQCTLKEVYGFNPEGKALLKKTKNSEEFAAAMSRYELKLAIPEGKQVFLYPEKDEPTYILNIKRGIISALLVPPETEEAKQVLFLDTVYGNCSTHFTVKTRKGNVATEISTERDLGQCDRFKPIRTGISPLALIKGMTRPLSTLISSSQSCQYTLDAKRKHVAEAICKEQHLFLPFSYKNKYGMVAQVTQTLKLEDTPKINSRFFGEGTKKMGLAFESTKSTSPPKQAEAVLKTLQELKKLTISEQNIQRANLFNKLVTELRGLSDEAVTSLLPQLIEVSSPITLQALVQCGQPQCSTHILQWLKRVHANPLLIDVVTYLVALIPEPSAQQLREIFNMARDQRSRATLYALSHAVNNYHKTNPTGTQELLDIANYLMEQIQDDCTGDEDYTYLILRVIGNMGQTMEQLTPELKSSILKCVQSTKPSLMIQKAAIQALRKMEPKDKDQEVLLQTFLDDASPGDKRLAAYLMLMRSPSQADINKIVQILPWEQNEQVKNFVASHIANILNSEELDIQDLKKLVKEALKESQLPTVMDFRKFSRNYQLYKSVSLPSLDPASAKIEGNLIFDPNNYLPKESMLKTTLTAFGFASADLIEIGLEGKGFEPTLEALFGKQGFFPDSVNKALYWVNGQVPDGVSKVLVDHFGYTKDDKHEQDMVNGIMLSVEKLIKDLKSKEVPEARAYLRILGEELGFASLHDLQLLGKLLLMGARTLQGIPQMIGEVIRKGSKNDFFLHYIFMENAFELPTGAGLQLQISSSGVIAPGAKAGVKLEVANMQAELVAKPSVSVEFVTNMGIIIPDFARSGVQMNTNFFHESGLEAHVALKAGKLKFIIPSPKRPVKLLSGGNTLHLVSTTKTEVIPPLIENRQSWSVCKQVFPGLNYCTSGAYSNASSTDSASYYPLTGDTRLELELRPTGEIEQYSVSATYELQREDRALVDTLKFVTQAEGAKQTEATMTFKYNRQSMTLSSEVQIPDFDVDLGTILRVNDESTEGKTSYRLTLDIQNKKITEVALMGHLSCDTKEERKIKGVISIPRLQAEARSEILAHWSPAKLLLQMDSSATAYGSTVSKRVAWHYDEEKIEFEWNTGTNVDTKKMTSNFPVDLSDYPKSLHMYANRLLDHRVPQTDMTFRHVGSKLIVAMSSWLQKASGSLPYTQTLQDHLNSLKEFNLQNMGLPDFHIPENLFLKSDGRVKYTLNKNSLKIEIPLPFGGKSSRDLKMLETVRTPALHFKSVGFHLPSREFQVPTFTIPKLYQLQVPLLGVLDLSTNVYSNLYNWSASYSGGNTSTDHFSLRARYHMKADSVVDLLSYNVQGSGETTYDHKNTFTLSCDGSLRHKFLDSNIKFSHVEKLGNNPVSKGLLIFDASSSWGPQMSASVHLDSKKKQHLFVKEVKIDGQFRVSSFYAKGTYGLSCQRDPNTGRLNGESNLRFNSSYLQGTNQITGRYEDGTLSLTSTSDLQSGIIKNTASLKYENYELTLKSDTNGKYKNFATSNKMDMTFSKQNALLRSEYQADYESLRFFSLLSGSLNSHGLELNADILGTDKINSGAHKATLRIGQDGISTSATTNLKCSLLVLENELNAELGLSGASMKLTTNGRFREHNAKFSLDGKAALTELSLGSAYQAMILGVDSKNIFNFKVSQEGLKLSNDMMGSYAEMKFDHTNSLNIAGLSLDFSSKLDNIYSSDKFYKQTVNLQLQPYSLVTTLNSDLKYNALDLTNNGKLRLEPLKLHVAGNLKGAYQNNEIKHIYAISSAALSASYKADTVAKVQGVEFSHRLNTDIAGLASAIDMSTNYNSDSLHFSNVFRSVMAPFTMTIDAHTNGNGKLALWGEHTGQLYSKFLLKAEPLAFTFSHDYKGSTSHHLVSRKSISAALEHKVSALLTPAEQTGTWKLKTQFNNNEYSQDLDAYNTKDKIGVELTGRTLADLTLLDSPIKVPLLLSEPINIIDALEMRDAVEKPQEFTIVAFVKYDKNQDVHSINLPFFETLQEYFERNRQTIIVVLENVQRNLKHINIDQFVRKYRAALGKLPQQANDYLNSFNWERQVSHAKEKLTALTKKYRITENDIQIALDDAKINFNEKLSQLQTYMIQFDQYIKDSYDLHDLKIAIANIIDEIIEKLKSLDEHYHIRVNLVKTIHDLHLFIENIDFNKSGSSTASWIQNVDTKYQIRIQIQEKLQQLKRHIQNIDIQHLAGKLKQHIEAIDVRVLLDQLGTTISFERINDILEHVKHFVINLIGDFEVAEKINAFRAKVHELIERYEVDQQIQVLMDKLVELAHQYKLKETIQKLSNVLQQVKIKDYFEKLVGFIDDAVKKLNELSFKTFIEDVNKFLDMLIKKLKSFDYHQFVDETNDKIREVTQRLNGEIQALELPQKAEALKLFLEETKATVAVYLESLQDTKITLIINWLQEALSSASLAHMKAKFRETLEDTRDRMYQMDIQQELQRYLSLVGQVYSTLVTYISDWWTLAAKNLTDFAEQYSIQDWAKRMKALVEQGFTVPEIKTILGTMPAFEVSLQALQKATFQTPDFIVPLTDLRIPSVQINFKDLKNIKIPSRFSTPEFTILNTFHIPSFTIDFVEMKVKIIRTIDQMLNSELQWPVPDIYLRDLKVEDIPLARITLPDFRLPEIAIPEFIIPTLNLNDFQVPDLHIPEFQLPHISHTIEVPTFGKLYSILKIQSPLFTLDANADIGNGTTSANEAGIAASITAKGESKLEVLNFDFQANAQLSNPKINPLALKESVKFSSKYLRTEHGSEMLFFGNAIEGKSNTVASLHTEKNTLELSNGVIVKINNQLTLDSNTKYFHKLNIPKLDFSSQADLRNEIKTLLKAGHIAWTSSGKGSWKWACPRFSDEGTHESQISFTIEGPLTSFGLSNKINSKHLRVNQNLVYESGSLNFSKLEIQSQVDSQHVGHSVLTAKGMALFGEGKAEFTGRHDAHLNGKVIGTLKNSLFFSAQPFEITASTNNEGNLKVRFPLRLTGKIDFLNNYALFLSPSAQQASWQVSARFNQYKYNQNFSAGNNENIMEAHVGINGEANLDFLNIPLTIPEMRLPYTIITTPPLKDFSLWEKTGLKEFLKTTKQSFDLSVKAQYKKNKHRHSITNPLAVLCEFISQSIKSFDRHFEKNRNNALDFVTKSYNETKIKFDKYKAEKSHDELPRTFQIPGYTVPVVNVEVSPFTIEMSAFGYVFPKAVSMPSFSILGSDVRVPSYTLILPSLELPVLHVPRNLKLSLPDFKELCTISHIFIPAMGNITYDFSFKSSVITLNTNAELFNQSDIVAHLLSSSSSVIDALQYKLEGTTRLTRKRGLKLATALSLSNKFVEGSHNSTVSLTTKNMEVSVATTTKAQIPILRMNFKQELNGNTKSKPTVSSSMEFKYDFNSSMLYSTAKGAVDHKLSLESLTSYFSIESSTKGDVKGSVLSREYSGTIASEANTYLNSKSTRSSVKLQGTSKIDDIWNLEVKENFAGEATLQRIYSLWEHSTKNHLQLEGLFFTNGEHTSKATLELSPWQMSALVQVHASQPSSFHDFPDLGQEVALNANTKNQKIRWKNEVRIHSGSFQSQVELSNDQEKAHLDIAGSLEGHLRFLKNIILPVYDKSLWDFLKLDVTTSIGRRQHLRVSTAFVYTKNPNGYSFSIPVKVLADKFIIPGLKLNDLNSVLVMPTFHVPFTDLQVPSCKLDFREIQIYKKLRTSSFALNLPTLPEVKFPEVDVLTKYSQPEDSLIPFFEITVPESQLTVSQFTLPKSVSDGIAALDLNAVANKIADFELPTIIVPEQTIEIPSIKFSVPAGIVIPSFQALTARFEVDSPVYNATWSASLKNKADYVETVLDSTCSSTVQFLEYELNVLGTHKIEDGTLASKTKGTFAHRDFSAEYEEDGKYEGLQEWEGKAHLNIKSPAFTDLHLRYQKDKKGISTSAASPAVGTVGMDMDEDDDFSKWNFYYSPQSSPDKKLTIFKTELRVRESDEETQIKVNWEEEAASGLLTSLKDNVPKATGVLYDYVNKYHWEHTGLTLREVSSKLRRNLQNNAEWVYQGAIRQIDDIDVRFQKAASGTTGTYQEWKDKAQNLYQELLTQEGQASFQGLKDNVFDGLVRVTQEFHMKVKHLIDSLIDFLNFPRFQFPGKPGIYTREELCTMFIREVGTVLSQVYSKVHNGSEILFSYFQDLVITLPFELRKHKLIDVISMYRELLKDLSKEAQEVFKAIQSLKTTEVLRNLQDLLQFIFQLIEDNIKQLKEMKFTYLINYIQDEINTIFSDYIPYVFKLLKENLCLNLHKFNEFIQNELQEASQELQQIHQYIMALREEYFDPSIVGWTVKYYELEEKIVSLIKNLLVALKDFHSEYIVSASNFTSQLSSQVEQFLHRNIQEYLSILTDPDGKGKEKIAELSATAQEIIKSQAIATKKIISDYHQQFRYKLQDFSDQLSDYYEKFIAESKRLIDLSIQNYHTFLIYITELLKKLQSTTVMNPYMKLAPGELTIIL

B1: CL48-139 (antibody, IgM, V domains shown)
VH: EGQLQQSGAEVVKPGASVKLSCTASGFNIKDTYIHWVKQRPEQGLEWIGRIDPTNGNTKYDPEFQGKATITADTSSNTAYLHLSGLTSEDTAVYYCAKGTLFAYWGQGTLVTVSA
VL: DIKMTQSPSSMYASLGERVTFTCKASQDINNYLTWVQQKPGKSPKTLIYRANRLVDGVPSRFSGSGSGQDYSLTISSLEYEDMGIYYCLQYDEFPPTFGGGTKLEIK
notes: Mouse monoclonal IgM, kappa, from mice immunized with arteriosclerotic plaque homogenate
As to B1, the binding result is “no binding”.

B2: CL56-369 (antibody, IgM, V domains shown)
VH: QVQLQQPGAELVKPGASVKLSCKASGYTFTSYWMHWVKQRPGQGLEWIGEIDPSDSYTNYNQKFKGKATLTVDKSSSTAYMQLSSLTSEDSAVYYCARGDMDAMDYWGQGTSVTVSS
VL: ETTVTQSPASLSMAIGEKVTIRCITSTDIDDDMNWYQQKPGEPPKLLISEGNTLRPGVPSRFSSSGYGTDFVFTIENMLSEDVADYYCLQSDNLPLTFGAGTKLELK
notes: as for B1
Consider B2, for which the binding result was “no binding”.
